Values of other authors as cited in article PMC8065807.

Biological target: EGFR (Homo sapiens) (UniProt P00533)

For GE11, the Kd is given as 22 nM.
